Target: T1, human full length recombinant 17β-hydroxysteroid dehydrogenase type 10 protein (His tag) (human, UniProt Q99714 1-261)
T1 construct: 17β-hydroxysteroid dehydrogenase type 10, human, full length recombinant protein; The tetramer was not measured here; The His tag and 'full length' are stated only in the co-immunoprecipitation methods; The SPR reagent is described as human recombinant protein from the same supplier, with no catalogue number; also called 17β-HSD10; ERAB; source: bought: Fitzgerald (Fitzgerald Industries …)
T1 sequence (looked up): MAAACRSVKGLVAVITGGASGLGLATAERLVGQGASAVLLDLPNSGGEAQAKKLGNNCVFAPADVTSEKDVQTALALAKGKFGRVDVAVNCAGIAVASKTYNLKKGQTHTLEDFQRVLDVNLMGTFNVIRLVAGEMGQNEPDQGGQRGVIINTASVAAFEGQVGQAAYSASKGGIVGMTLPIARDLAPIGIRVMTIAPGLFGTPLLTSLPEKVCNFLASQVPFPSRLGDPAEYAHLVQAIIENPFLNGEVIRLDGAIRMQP
Assay: SPR; cypD captured (response 1.5 nm) on amine-coupled anti-cypD antibody; 17β-HSD10 at 6, 10, 30, 60 and 100 nM injected 10 min, dissociation 15 min; HEPES 10 mM pH 7.4 with 250 µg/ml BSA, 15 mM KCl, 0.1 mM MgCl2; 25 °C, 20 µl/min; reference channel without cypD subtracted; global fit, 1:1 Langmuir model with mass transport
Details: both partners purified

Kd: 0.35 nM | koff: 5.8e-05 s⁻¹
B1: human full length cyclophilin D protein (His tag) (enzyme)
chain: not shown
notes: cyclophilin D (mitochondrial peptidyl-prolyl cis-trans isomerase F), human, full length recombinant protein; The His tag and 'full length' are stated only in the co-immunoprecipitation methods; also called cypD; PPIF; source: bought: Fitzgerald (Fitzgerald Industries International), recombinant

Reference: paper PMC7078148, “Interactions of 17β-Hydroxysteroid Dehydrogenase Type 10 and Cyclophilin D in Alzheimer's Disease” (Neurochemical Research, 2020)
